We go through 1 substance from publication PMC6947841.

The test deals with anti-TSLP-scFv-Fc-M4 (mutated recombinant antibody) (human). The experiment in a line: BLI. (In general: In BLI a coated tip is dipped into the sample, and binding shifts an interference pattern.)

For the substance “thymic stromal lymphopoietin (TSLP), standard recombinant human TSLP protein (from UniProt Q969D9 29-159) (ligand)”, the fold change of affinity against scFv-Fc-84 worked out at 10 fold.
